Experimental findings from paper PMC9823007 are described below.

One may read the stoichiometry N as a count of units in the complex or per binding partner.

The experiment concerns the target NyxB (His tag cleaved, for crystallisation, SEC-MALS and SAXS) (Brucella abortus 2308) (UniProt Q2YPZ9). Put plainly: SEC-MALS.

In the case of “NyxB (His tag cleaved, for crystallisation, SEC-MALS and SAXS) (from UniProt Q2YPZ9 1-134) (natural protein)”, the stoichiometry N was found to be 2.
